Measured values from the supplement of paper PMC9112550, “Optimization of the antimicrobial peptide Bac7 by deep mutational scanning” (BMC Biology, 2022).

Test system: Escherichia coli TOP10
Assay: shrunken log2 fold change of peptide-encoding DNA abundance (4.5 h post-induction vs induction); higher = less antimicrobial activity (less host growth inhibition)
Details: time post-induction: 4.5 h; library: site-saturation at positions 5, 18, 19, 20
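Note: peptides expressed intracellularly from a pBAD plasmid library in pooled LB shake-flask culture, induced with 0.3% L-arabinose, DNA abundance read by NGS, three biological replicates, DESeq2 with apeglm shrinkage.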

Sequence	shrunken log2 fold change
RRIRYRPPRLPRPRPRPDKTPRP	0.0325
RRIRIRPPRLPRPRPRPPMHPRP	-0.0688
RRIRDRPPRLPRPRPRPNVTPRP	-0.282
RRIRDRPPRLPRPRPRPLFHPRP	-0.152
RRIRSRPPRLPRPRPRPSHRPRP	-0.41
RRIRFRPPRLPRPRPRPWCHPRP	0.524
RRIRCRPPRLPRPRPRPDVIPRP	-0.405
RRIRKRPPRLPRPRPRPDIIPRP	0.194
RRIRSRPPRLPRPRPRPGPEPRP	0.221
RRIRPRPPRLPRPRPRPLEHPRP	-0.565
RRIRGRPPRLPRPRPRPKHNPRP	0.203
RRIRKRPPRLPRPRPRPEKWPRP	0.422
RRIRPRPPRLPRPRPRPCHFPRP	-0.265
RRIRMRPPRLPRPRPRPDHFPRP	-0.0876
RRIRFRPPRLPRPRPRPWVAPRP	-0.139
RRIRARPPRLPRPRPRPRRNPRP	0.308
RRIRHRPPRLPRPRPRPILMPRP	-0.00291
RRIRLRPPRLPRPRPRPFTIPRP	-0.174
RRIRERPPRLPRPRPRPCKDPRP	-0.117
RRIRFRPPRLPRPRPRPWKWPRP	-0.0196
RRIRMRPPRLPRPRPRPIICPRP	-0.00127
RRIRERPPRLPRPRPRPSSGPRP	-0.648
RRIRARPPRLPRPRPRPPGGPRP	0.864
RRIRTRPPRLPRPRPRPMSAPRP	-0.152
RRIRQRPPRLPRPRPRPGTCPRP	-0.266

Sequence	shrunken log2 fold change
RRIRLRPPRLPRPRPRPQMQPRP	0.017
RRIRVRPPRLPRPRPRPKPRPRP	0.638
RRIRTRPPRLPRPRPRPNEWPRP	-0.0827
RRIRRRPPRLPRPRPRPFCQPRP	-0.252
RRIRDRPPRLPRPRPRPIPLPRP	-0.0193
RRIRNRPPRLPRPRPRPETAPRP	0.536
RRIRCRPPRLPRPRPRPDPGPRP	0.112
RRIRFRPPRLPRPRPRPTKHPRP	0.101
RRIRTRPPRLPRPRPRPQMPPRP	0.588
RRIRRRPPRLPRPRPRPQWPPRP	0.00418
RRIRCRPPRLPRPRPRPFSTPRP	-0.472
RRIRQRPPRLPRPRPRPLIFPRP	-0.432
RRIRFRPPRLPRPRPRPFVGPRP	-0.0219
RRIRHRPPRLPRPRPRPGSVPRP	-0.31
RRIRRRPPRLPRPRPRPYKKPRP	0.142
RRIRERPPRLPRPRPRPMHCPRP	-0.0195
RRIRKRPPRLPRPRPRPSKIPRP	0.154
RRIRERPPRLPRPRPRPVCKPRP	0.0272
RRIRYRPPRLPRPRPRPAQEPRP	0.075
RRIRERPPRLPRPRPRPQPCPRP	-0.312
RRIRMRPPRLPRPRPRPGFAPRP	1.35
RRIRVRPPRLPRPRPRPRMMPRP	0.0121
RRIRLRPPRLPRPRPRPCVRPRP	0.0511
RRIRMRPPRLPRPRPRPLCTPRP	1.19
RRIRVRPPRLPRPRPRPNQNPRP	-0.312

Sequence	shrunken log2 fold change
RRIRLRPPRLPRPRPRPTQRPRP	0.248
RRIRNRPPRLPRPRPRPMRHPRP	-0.18
RRIRPRPPRLPRPRPRPYMSPRP	-0.636
RRIRARPPRLPRPRPRPNWFPRP	0.0236
RRIRWRPPRLPRPRPRPYMSPRP	-0.212
RRIRARPPRLPRPRPRPGRHPRP	0.159
RRIRSRPPRLPRPRPRPIASPRP	0.0102
RRIRDRPPRLPRPRPRPVIKPRP	0.0149
RRIRVRPPRLPRPRPRPFREPRP	0.0848
RRIRGRPPRLPRPRPRPPDEPRP	1.27
RRIRLRPPRLPRPRPRPHYIPRP	-0.615
RRIRMRPPRLPRPRPRPWCVPRP	0.0904
RRIRHRPPRLPRPRPRPQHFPRP	0.0728
RRIRMRPPRLPRPRPRPWIKPRP	0.101
RRIRFRPPRLPRPRPRPQEIPRP	-0.0426
RRIRARPPRLPRPRPRPSPYPRP	-0.333
RRIRCRPPRLPRPRPRPKQCPRP	0.269
RRIRIRPPRLPRPRPRPMQRPRP	-0.129
RRIRSRPPRLPRPRPRPIDHPRP	-0.273
RRIRPRPPRLPRPRPRPCWYPRP	-0.408
RRIRPRPPRLPRPRPRPMQTPRP	0.119
RRIRPRPPRLPRPRPRPSQLPRP	-0.0897
RRIRWRPPRLPRPRPRPCNIPRP	-0.133
RRIRMRPPRLPRPRPRPFPTPRP	0.153
RRIRWRPPRLPRPRPRPAAGPRP	0.545

Sequence	shrunken log2 fold change
RRIRTRPPRLPRPRPRPKHGPRP	-0.0288
RRIRWRPPRLPRPRPRPPNGPRP	0.034
RRIRPRPPRLPRPRPRPFWLPRP	0.115
RRIRARPPRLPRPRPRPFKLPRP	-0.39
RRIRFRPPRLPRPRPRPLCQPRP	-0.12
RRIRTRPPRLPRPRPRPPVAPRP	0.428
RRIRSRPPRLPRPRPRPHAYPRP	0.0215
RRIRWRPPRLPRPRPRPFDMPRP	-0.105
RRIRSRPPRLPRPRPRPPGMPRP	-0.0105
RRIRLRPPRLPRPRPRPYWMPRP	-0.257
RRIRQRPPRLPRPRPRPPNWPRP	0.358
RRIRVRPPRLPRPRPRPTMAPRP	0.235
RRIRCRPPRLPRPRPRPGDTPRP	-0.0505
RRIRWRPPRLPRPRPRPGNKPRP	-0.0586
RRIRARPPRLPRPRPRPHLDPRP	0.324
RRIRPRPPRLPRPRPRPHGWPRP	0.274
RRIRERPPRLPRPRPRPDIIPRP	0.0463
RRIRCRPPRLPRPRPRPVMPPRP	-0.139
RRIRIRPPRLPRPRPRPCSEPRP	-0.0312
RRIRSRPPRLPRPRPRPHPEPRP	0.316
RRIRWRPPRLPRPRPRPRNPPRP	0.113
RRIRCRPPRLPRPRPRPGNVPRP	-0.357
RRIRARPPRLPRPRPRPVACPRP	0.284
RRIRERPPRLPRPRPRPTNNPRP	-0.591
RRIRSRPPRLPRPRPRPETCPRP	0.152

Sequence	shrunken log2 fold change
RRIRQRPPRLPRPRPRPKPKPRP	0.278
RRIRPRPPRLPRPRPRPDFLPRP	-0.235
RRIRRRPPRLPRPRPRPQHYPRP	-0.128
RRIRTRPPRLPRPRPRPNVRPRP	0.075
RRIRSRPPRLPRPRPRPPDTPRP	0.237
RRIRMRPPRLPRPRPRPCCWPRP	0.787
RRIRLRPPRLPRPRPRPYLIPRP	-0.274
RRIRSRPPRLPRPRPRPLCKPRP	-0.137
RRIRCRPPRLPRPRPRPWNKPRP	-0.684
RRIRLRPPRLPRPRPRPESSPRP	-0.015
RRIRNRPPRLPRPRPRPPYMPRP	-1.13
RRIRMRPPRLPRPRPRPFHAPRP	0.199
RRIRYRPPRLPRPRPRPGTQPRP	-0.141
RRIRVRPPRLPRPRPRPSMVPRP	-0.475
RRIRRRPPRLPRPRPRPADTPRP	0.423
RRIRTRPPRLPRPRPRPHWLPRP	0.122
RRIRARPPRLPRPRPRPCFMPRP	-0.0304
RRIRRRPPRLPRPRPRPRSPPRP	0.49
RRIRQRPPRLPRPRPRPKKKPRP	-0.0791
RRIRSRPPRLPRPRPRPENNPRP	-0.449
RRIRPRPPRLPRPRPRPEVPPRP	0.0363
RRIRKRPPRLPRPRPRPKFMPRP	-0.0124
RRIRKRPPRLPRPRPRPDSYPRP	-0.00206
RRIRWRPPRLPRPRPRPVITPRP	0.362
RRIRNRPPRLPRPRPRPTHCPRP	0.085
